Results reported in article PMC5531472, “A single nucleotide polymorphism causes enhanced radical oxygen species production by human aldehyde oxidase” (PLoS ONE, 2017).
Numbering of substitutions follows the chain as printed. In names and notes the source's numbering stands.

B1: human aldehyde oxidase 1 variant G46E (enzyme)
chain: MDRASELLFYVNGRKVIEKNVDPETMLLPYLRKKLRLTGTKYGCGEGGCGACTVMISRYNPITKRIRHHPANACLIPICSLYGAAVTTVEGIGSTHTRIHPVQERIAKCHGTQCGFCTPGMVMSIYTLLRNHPEPTLDQLTDALGGNLCRCTGYRPIIDACKTFCKTSGCCQSKENGVCCLDQGINGLPEFEEGSKTSPKLFAEEEFLPLDPTQELIFPPELMIMAEKQSQRTRVFGSERMMWFSPVTLKELLEFKFKYPQAPVIMGNTSVGPEVKFKGVFHPVIISPDRIEELSVVNHAYNGLTLGAGLSLAQVKDILADVVQKLPEEKTQMYHALLKHLGTLAGSQIRNMASLGGHIISRHPDSDLNPILAVGNCTLNLLSKEGKRQIPLNEQFLSKCPNADLKPQEILVSVNIPYSRKWEFVSAFRQAQRQENALAIVNSGMRVFFGEGDGIIRELCISYGGVGPATICAKNSCQKLIGRHWNEQMLDIACRLILNEVSLLGSAPGGKVEFKRTLIISFLFKFYLEVSQILKKMDPVHYPSLADKYESALEDLHSKHHCSTLKYQNIGPKQHPEDPIGHPIMHLSGVKHATGEAIYCDDMPLVDQELFLTFVTSSRAHAKIVSIDLSEALSMPGVVDIMTAEHLSDVNSFCFFTEAEKFLATDKVFCVGQLVCAVLADSEVQAKRAAKRVKIVYQDLEPLILTIEESIQHNSSFKPERKLEYGNVDEAFKVVDQILEGEIHMGGQEHFYMETQSMLVVPKGEDQEMDVYVSTQFPKYIQDIVASTLKLPANKVMCHVRRVGGAFGGKVLKTGIIAAVTAFAANKHGRAVRCVLERGEDMLITGGRHPYLGKYKAGFMNDGRILALDMEHYSNAGASLDESLFVIEMGLLKMDNAYKFPNLRCRGWACRTNLPSNTAFRGFGFPQAALITESCITEVAAKCGLSPEKVRIINMYKEIDQTPYKQEINAKNLIQCWRECMAMSSYSLRKVAVEKFNAENYWKKKGLAMVPLKFPVGLGSRAAGQAAALVHIYLDGSVLVTHGGIEMGQGVHTKMIQVVSRELRMPMSNVHLRGTSTETVPNANISGGSVVADLNGLAVKDACQTLLKRLEPIISKNPKGTWKDWAQTAFDESINLSAVGYFRGYESDMNWEKGEGQPFEYFVYGAACSEVEIDCLTGDHKNIRTDIVMDVGCSINPAIDIGQIEGAFIQGMGLYTIEELNYSPQGILHTRGPDQYKIPAICDMPTELHIALLPPSQNSNTLYSSKGLGESGVFLGCSVFFAIHDAVSAARQERGLHGPLTLNSPLTPEKIRMACEDKFTKMIPRDEPGSYVPWNVPI
notes: human aldehyde oxidase 1 (hAOX1), protein of 1338 amino acids, SNP-based variant G46E; construct pAF4 derived from pTHcohAOX1; also called hAOX1 G46E; pAF4; source: E. coli TP1000 (ΔmobAB), purified (nickel-nitrilotriacetic acid resin, size exclusion chromatography)
B2: human aldehyde oxidase 1 variant G50D (enzyme)
chain: B1 chain with E46G, G50D
notes: human aldehyde oxidase 1 (hAOX1), protein of 1338 amino acids, SNP-based variant G50D; construct pAF5 derived from pTHcohAOX1; purified with a 10-fold lower yield than the other variants; also called hAOX1 G50D; hAOX1-G50D; source: E. coli TP1000 (ΔmobAB), purified (nickel-nitrilotriacetic acid resin, size exclusion chromatography)
B3: human aldehyde oxidase 1 variant R433P (enzyme)
chain: B1 chain with E46G, R433P
notes: human aldehyde oxidase 1 (hAOX1), protein of 1338 amino acids, SNP-based variant R433P; construct pAF8 derived from pTHcohAOX1; also called hAOX1 R433P; pAF8; source: E. coli TP1000 (ΔmobAB), purified (nickel-nitrilotriacetic acid resin, size exclusion chromatography)
B4: human aldehyde oxidase 1 variant A437V (enzyme)
chain: B1 chain with E46G, A437V
notes: human aldehyde oxidase 1 (hAOX1), protein of 1338 amino acids, SNP-based variant A437V; construct pAF9 derived from pTHcohAOX1; also called hAOX1 A437V; pAF9; source: E. coli TP1000 (ΔmobAB), purified (nickel-nitrilotriacetic acid resin, size exclusion chromatography)
B5: human aldehyde oxidase 1 variant L438V (enzyme)
chain: B1 chain with E46G, L438V
notes: human aldehyde oxidase 1 (hAOX1), protein of 1338 amino acids, SNP-based variant L438V; construct pAF10 derived from pTHcohAOX1; also called hAOX1 L438V; hAOX1-L438V; source: E. coli TP1000 (ΔmobAB), purified (nickel-nitrilotriacetic acid resin, size exclusion chromatography)
B6: human aldehyde oxidase 1 variant H363Q (enzyme)
chain: B1 chain with E46G, H363Q
notes: human aldehyde oxidase 1 (hAOX1), protein of 1338 amino acids, SNP-based variant H363Q; construct pAF7 derived from pTHcohAOX1; also called hAOX1 H363Q; pAF7; source: E. coli TP1000 (ΔmobAB), purified (nickel-nitrilotriacetic acid resin, size exclusion chromatography)
B7: human aldehyde oxidase 1 variant R1231H (enzyme)
chain: B1 chain with E46G, R1231H
notes: human aldehyde oxidase 1 (hAOX1), protein of 1338 amino acids, SNP-based variant R1231H; construct pAF12 derived from pTHcohAOX1; also called hAOX1 R1231H; pAF12; source: E. coli TP1000 (ΔmobAB), purified (nickel-nitrilotriacetic acid resin, size exclusion chromatography)
B8: human aldehyde oxidase 1 variant G346R (enzyme)
chain: B1 chain with E46G, G346R
notes: human aldehyde oxidase 1 (hAOX1), protein of 1338 amino acids, SNP-based variant G346R; construct pAF6 derived from pTHcohAOX1; also called hAOX1 G346R; pAF6; source: E. coli TP1000 (ΔmobAB), purified (nickel-nitrilotriacetic acid resin, size exclusion chromatography)
B9: human aldehyde oxidase 1 variant K1237N (enzyme)
chain: B1 chain with E46G, K1237N
notes: human aldehyde oxidase 1 (hAOX1), protein of 1338 amino acids, SNP-based variant K1237N; construct pAF13 derived from pTHcohAOX1; also called hAOX1 K1237N; pAF13; source: E. coli TP1000 (ΔmobAB), purified (nickel-nitrilotriacetic acid resin, size exclusion chromatography)
B10: human aldehyde oxidase 1 variant A439E (enzyme)
chain: B1 chain with E46G, A439E
notes: human aldehyde oxidase 1 (hAOX1), protein of 1338 amino acids, SNP-based variant A439E; construct pAF11 derived from pTHcohAOX1; also called hAOX1 A439E; pAF11; source: E. coli TP1000 (ΔmobAB), purified (nickel-nitrilotriacetic acid resin, size exclusion chromatography)

Biological target: the molecule itself
Assay: SEC; size exclusion chromatography on a Superdex 200 10/300 GL column after nickel-NTA purification; data not shown

Stoichiometry N, 2:
B1, B2, B3, B4, B5, B6, B7, B8, B9, B10
